Where two headings read alike, the source gives them in different places.
How the values were obtained:
human Elastase = target: T1, human Elastase (Homo sapiens, UniProt P08246); experiment: Elastase cleavability test; format: biochemical; conditions: 5 μM test compound, 1 h at 37° C.
T1 sequence (P08246 30-267): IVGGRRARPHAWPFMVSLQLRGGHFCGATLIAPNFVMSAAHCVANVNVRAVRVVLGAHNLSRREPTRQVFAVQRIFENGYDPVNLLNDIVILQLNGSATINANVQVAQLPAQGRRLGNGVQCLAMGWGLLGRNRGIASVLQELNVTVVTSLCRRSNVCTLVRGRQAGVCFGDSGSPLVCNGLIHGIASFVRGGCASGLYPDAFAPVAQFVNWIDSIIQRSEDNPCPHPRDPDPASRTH
Protocol: The test compound was added to buffer (150 mM NaCl, 10 mM CaCl2, 0.05% BSA) to a final concentration of 5 μM (0.5% DMSO). The reaction was started by adding different concentrations of human Elastase (0, 20, 40, 60 nM) to the reaction vials. After incubation for 1 h at 37° C., the enzymatic reaction was stopped by precipitation in 50% ACN. Subsequently, the samples were subjected to HPLC-MS analysis to determine the concentration of test compound and of its metabolite.

[1] = Stability in human plasma; format: in vitro ADME; conditions: 37° C., percent area of the initial compound at t0 (HPLC), read-out: Stability human plasma after 4 h
Protocol: (§1) 1 mg of the respective test compound of is dissolved in a mixture of 1.5 mL dimethylsulfoxide and 1 ml water. For complete dissolution, the HPLC vial is shaken and treated with an ultrasound. 500 μl of this solution is added to 0.5 mL of plasma with vortexing at a temperature of 37° C. Aliquots (10 μL each) are taken at respective time points and analyzed by HPLC to determine the amount of the test compound. All data is given as percent area of the initial compound at to.

Stability in buffer = format: physicochemical; conditions: HPLC peak area in percentage
Protocol: 0.15 mg of the test compound are solved in 0.1 ml dimethylsulfoxide and 0.4 ml acetonitrile. For complete dissolution the HPLC vial with the sample solution is shaken and sonicated. Then 1.0 ml of the respective buffer solution is added, and the sample is vortexed. The sample solution is analysed by HPLC to determine the amount of the test compound and up to two byproducts at a particular time over a period of 24 h at 37° C. to values result from a sample immediately taken after vortexing with buffer at RT. The peak areas (in percentage) are used for quantification.

Stability in rat plasma = format: in vitro ADME; conditions: 37° C., percent area of the initial compound at t0 (HPLC), read-out: Stability rat plasma after 4 h
Protocol: as §1

[2] = Pharmacokinetics in rat after intravenous administration; format: in vivo; conditions: plasma, male rats, intravenous bolus 0.5 mg/kg; for clearance: read-out: CL plasma; for Vd: read-out: VSS
Protocol: Male rats (n=3) were given an intravenous 0.5 mg/kg bolus dose of test article dissolved in plasma with 1% DMSO and 2% ethanol. Serial blood samples were collected up to 24 hours post-dose. Plasma was harvested from blood samples and stored frozen until sample analysis. Test article plasma concentrations were analyzed by LC/MS/MS. Pharmacokinetic parameters were calculated using non-compartmental analysis.

SUM149PT = experiment: Cytotoxicity in vitro in the presence and absence of elastase (MTT assay); format: cell-based; conditions: SUM149PT cells, 72 h incubation
In short: (§2)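 Readout: MTT formazan absorbance at 570 nm after 4 h MTT and overnight detergent lysis. Compound exposure was 72 h at 37 °C, 10^−5–10^−13 M, in parallel sets with or without 10 nM elastase.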

786-O = experiment: as above; format: cell-based; conditions: 786-O cells, 72 h incubation
In short: as §2

NCI-H292 = experiment: as above; format: cell-based; conditions: NCI-H292 cells, 72 h incubation
In short: as §2

HT29 = experiment: as above; format: cell-based; conditions: HT29 cells, 72 h incubation
In short: as §2

[3] = buffer pH 4, 37° C., read-out: Stability buffer pH 4 after 24 h
[4] = buffer pH 7.4, 37° C., read-out: Stability buffer pH 7.4 after 24 h
[5] = compound alone, read-out: IC50 without neutrophil elastase
[6] = with 10 nM elastase (NE), read-out: IC50 with neutrophil elastase

## CCCNC(=O)Nc1cccc(S(=O)(=O)Nc2cccc([C@@H](CC(=O)O)NC(=O)Nc3ccc(NC(=O)NCCOCCOCCOCCC(=O)N[C@@H](CC(=O)O)C(=O)N4CCC[C@H]4C(=O)N[C@H](C(=O)O[C@@H](c4ccccc4)[C@@H](C)NC(=O)[C@H](C)C(OC)[C@@H]4CCCN4C(=O)CC(OC)[C@H]([C@@H](C)CC)N(C)C(=O)[C@@H](NC(=O)[C@@H](NC)C(C)C)C(C)C)C(C)C)cc3)c2)c1 (some centres unmarked) [Compound 13]
Human Elastase; Elastase Concentration 0 nM
  Payload release after 1 h: D (D = <1%)
Human Elastase; Elastase Concentration 20 nM
  Payload release after 1 h: A (A = >70%)
[1]
  remaining at 4 h, 0.2 mg/mL: 100%
Stability in buffer; [3]
  remaining at 24 h, 0.1 mg/mL: 92%
Stability in buffer; [4]
  remaining at 24 h, 0.1 mg/mL: 100%
Stability in rat plasma
  remaining at 4 h, 0.2 mg/mL: 100%
[2]
  AUC: 1000 to 10000 ng·h/mL
  half-life: 1 to 5 h
  clearance: 0.5 to 5 mL/min/kg
  Vd: 0.1 to 0.3 L/kg

## CCCNC(=O)Nc1cccc(S(=O)(=O)Nc2cccc([C@@H](CC(=O)O)NC(=O)Nc3ccc(NC(=O)NCCOCCOCCOCCC(=O)N[C@@H](CC(N)=O)C(=O)N4CCC[C@H]4C(=O)N[C@H](C(=O)NCCCN(C(=O)CO)[C@@H](c4cc(-c5cc(F)ccc5F)cn4Cc4ccccc4)C(C)(C)C)C(C)C)cc3)c2)c1 [Compound 17, sodium N^2-(14-{4-[({(1R)-2-carboxylato-1-[3-({3-[(propylcarbamoyl)amino]benzene-1-sulfonyl}amino)phenyl]ethyl}carbamoyl)amino]anilino}-14-oxo-4,7,10-trioxa-13-azatetradecanan-1-oyl)-L-asparaginyl-L-prolyl-N-{3-[{(1R)-1-[1-benzyl-4-(2,5-difluorophenyl)-1H-pyrrol-2-yl]-2,2-dimethylpropyl}(hydroxyacetyl)amino]propyl}-L-valinamide]
Human Elastase; Elastase Concentration 0 nM
  Payload release after 1 h: D (D = <1%)
Human Elastase; Elastase Concentration 20 nM
  Payload release after 1 h: C (C = >1%)
[1]
  remaining at 4 h, 0.2 mg/mL: 100%
Stability in buffer; [3]
  remaining at 24 h, 0.1 mg/mL: 100%
Stability in buffer; buffer pH 7.4, 37° C.
  Stability buffer pH 7.4 after 24 h: 100%
Stability in rat plasma
  remaining at 4 h, 0.2 mg/mL: 100%
SUM149PT; [5]
  IC50: 100 to 999 nM
SUM149PT; [6]
  IC50: 0.1 to 1 nM
786-O; [5]
  IC50: > 1000 nM
786-O; [6]
  IC50: 1 to 9.9 nM
NCI-H292; [5]
  IC50: 100 to 999 nM
NCI-H292; [6]
  IC50: 1 to 9.9 nM
HT29; [5]
  IC50: > 1000 nM
HT29; [6]
  IC50: 1 to 9.9 nM
[2]
  AUC: 1000 to 10000 ng·h/mL
  half-life: 5 to 10 h
  clearance: 0.5 to 5 mL/min/kg
  Vd: 0.3 to 0.9 L/kg

## CCCNC(=O)Nc1cccc(S(=O)(=O)Nc2cccc([C@@H](CC(=O)O)NC(=O)Nc3ccc(NC(=O)NCCOCCOCCOCCC(=O)N[C@@H](CC(=O)O)C(=O)N4CCC[C@H]4C(=O)N[C@H](C(=O)N[C@@H](CCN(C(=O)CO)[C@@H](c4cc(-c5cc(F)ccc5F)cn4Cc4ccccc4)C(C)(C)C)C(=O)NC)C(C)C)cc3)c2)c1 [Compound 26, disodium 1-[(2S)-2-(carboxylatomethyl)-17-{4-[({(1R)-2-carboxylato-1-[3-({3-[(propylcarbamoyl)amino]benzene-1-sulfonyl}amino)phenyl]ethyl}carbamoyl)amino]anilino}-4,17-dioxo-7,10,13-trioxa-3,16-diazaheptadecanan-1-oyl]-L-prolyl-N-[(2S)-4-[{(1R)-1-[1-benzyl-4-(2,5-difluorophenyl)-1H-pyrrol-2-yl]-2,2-dimethylpropyl}(hydroxyacetyl)amino]-1-(methylamino)-1-oxobutan-2-yl]-L-valinamide]
Human Elastase; Elastase Concentration 0 nM
  Payload release after 1 h: D (D = <1%)
Human Elastase; Elastase Concentration 20 nM
  Payload release after 1 h: B (B = >20%)
[1]
  remaining at 4 h, 0.2 mg/mL: 100%
Stability in buffer; [3]
  remaining at 24 h, 0.1 mg/mL: 94%
Stability in buffer; [4]
  remaining at 24 h, 0.1 mg/mL: 100%
Stability in rat plasma
  remaining at 4 h, 0.2 mg/mL: 100%
SUM149PT; [5]
  IC50: > 1000 nM
SUM149PT; [6]
  IC50: 0.1 to 1 nM
NCI-H292; [5]
  IC50: > 1000 nM
NCI-H292; [6]
  IC50: 1 to 9.9 nM
HT29; [5]
  IC50: > 1000 nM
HT29; [6]
  IC50: 1 to 9.9 nM
[2]
  AUC: 1000 to 10000 ng·h/mL
  half-life: < 0.5 h
  clearance: 0.5 to 5 mL/min/kg
  Vd: 0.01 to 0.1 L/kg
